Data as given in patent US20060258562A1 (HEALOR, published 2006).

B1: PKCζ (protein kinase C zeta) (enzyme, mouse, UniProt Q02956 1-592, looked up)
chain: MPSRTDPKMDRSGGRVRLKAHYGGDILITSVDAMTTFKDLCEEVRDMCGLHQQHPLTLKWVDSEGDPCTVSSQMELEEAFRLVCQGRDEVLIIHVFPSIPEQPGMPCPGEDKSIYRRGARRWRKLYRANGHLFQAKRFNRGAYCGQCSERIWGLSRQGYRCINCKLLVHKRCHVLVPLTCRRHMDSVMPSQEPPVDDKNDGVDLPSEETDGIAYISSSRKHDNIKDDSEDLKPVIDGVDGIKISQGLGLQDFDLIRVIGRGSYAKVLLVRLKKNDQIYAMKVVKKELVHDDEDIDWVQTEKHVFEQASSNPFLVGLHSCFQTTSRLFLVIEYVNGGDLMFHMQRQRKLPEEHARFYAAEICIALNFLHERGIIYRDLKLDNVLLDADGHIKLTDYGMCKEGLGPGDTTSTFCGTPNYIAPEILRGEEYGFSVDWWALGVLMFEMMAGRSPFDIITDNPDMNTEDYLFQVILEKPIRIPRFLSVKASHVLKGFLNKDPKERLGCRPQTGFSDIKSHAFFRSIDWDLLEKKQTLPPFQPQITDDYGLDNFDTQFTSEPVQLTPDDEDVIKRIDQSEFEGFEYINPLLLSAEESV
B2: PKCε (protein kinase C epsilon) (enzyme, mouse, UniProt P16054 1-737, looked up)
chain: MVVFNGLLKIKICEAVSLKPTAWSLRHAVGPRPQTFLLDPYIALNVDDSRIGQTATKQKTNSPAWHDEFVTDVCNGRKIELAVFHDAPIGYDDFVANCTIQFEELLQNGSRHFEDWIDLEPEGKVYVIIDLSGSSGEAPKDNEERVFRERMRPRKRQGAVRRRVHQVNGHKFMATYLRQPTYCSHCRDFIWGVIGKQGYQCQVCTCVVHKRCHELIITKCAGLKKQETPDEVGSQRFSVNMPHKFGIHNYKVPTFCDHCGSLLWGLLRQGLQCKVCKMNVHRRCETNVAPNCGVDARGIAKVLADLGVTPDKITNSGQRRKKLAAGAESPQPASGNSPSEDDRSKSAPTSPCDQELKELENNIRKALSFDNRGEEHRASSATDGQLASPGENGEVRPGQAKRLGLDEFNFIKVLGKGSFGKVMLAELKGKDEVYAVKVLKKDVILQDDDVDCTMTEKRILALARKHPYLTQLYCCFQTKDRLFFVMEYVNGGDLMFQIQRSRKFDEPRSRFYAAEVTSALMFLHQHGVIYRDLKLDNILLDAEGHCKLADFGMCKEGIMNGVTTTTFCGTPDYIAPEILQELEYGPSVDWWALGVLMYEMMAGQPPFEADNEDDLFESILHDDVLYPVWLSKEAVSILKAFMTKNPHKRLGCVAAQNGEDAIKQHPFFKEIDWVLLEQKKIKPPFKPRIKTKRDVNNFDQDFTREEPILTLVDEAIIKQINQEEFKGFSYFGEDLMP
B3: PKCη (protein kinase C eta) (enzyme, mouse, UniProt P23298 1-683, looked up)
chain: MSSGTMKFNGYLRVRIGEAVGLQPTRWSLRHSLFKKGHQLLDPYLTVSVDQVRVGQTSTKQKTNKPTYNEEFCANVTDGGHLELAVFHETPLGYDHFVANCTLQFQELLRTAGTSDTFEGWVDLEPEGKVFVVITLTGSFTEATLQRDRIFKHFTRKRQRAMRRRVHQVNGHKFMATYLRQPTYCSHCREFIWGVFGKQGYQCQVCTCVVHKRCHHLIVTACTCQNNINKVDAKIAEQRFGINIPHKFNVHNYKVPTFCDHCGSLLWGIMRQGLQCKICKMNVHIRCQANVAPNCGVNAVELAKTLAGMGLQPGNISPTSKLISRSTLRRQGKEGSKEGNGIGVNSSSRFGIDNFEFIRVLGKGSFGKVMLARIKETGELYAVKVLKKDVILQDDDVECTMTEKRILSLARNHPFLTQLFCCFQTPDRLFFVMEFVNGGDLMFHIQKSRRFDEARARFYAAEIISALMFLHEKGIIYRDLKLDNVLLDHEGHCKLADFGMCKEGICNGVTTATFCGTPDYIAPEILQEMLYGPAVDWWAMGVLLYEMLCGHAPFEAENEDDLFEAILNDEVVYPTWLHEDATGILKSFMTKNPTMRLGSLTQGGEHEILRHPFFKEIDWAQLNHRQLEPPFRPRIKSREDVSNFDPDFIKEEPVLTPIDEGHLPMINQDEFRNFSYVSPELQL
B4: PKCα (protein kinase C alpha) (enzyme)
chain: not shown

The binders below were run against T1, STAT3 (Signal Transducer and Activator of Transcription 3) (mouse, UniProt P42227 2-770) (assay: co-immunoprecipitation from primary keratinocyte lysates, anti-STAT3 Western blot).
T1 construct: Detected by anti-STAT3 Western blot in PKC immunoprecipitates
Method: FIG. 23 identifies a specific interaction between STAT3 and PKCδ in primary skin keratinocytes. Primary keratinocytes were either untreated (upper panel) or infected for 1 hour with isoform specific, recombinant PKC α, δ, η or ζ adenoviruses (lower panel). Cells were extracted and immunoprecipitated (IP) with isoform specific PKC antibodies. The immunoprecipitates were subjected to Western blot analysis using anti-PKCs or anti-STAT3 antibodies.

T1 sequence (P42227 2-770 limits assumed): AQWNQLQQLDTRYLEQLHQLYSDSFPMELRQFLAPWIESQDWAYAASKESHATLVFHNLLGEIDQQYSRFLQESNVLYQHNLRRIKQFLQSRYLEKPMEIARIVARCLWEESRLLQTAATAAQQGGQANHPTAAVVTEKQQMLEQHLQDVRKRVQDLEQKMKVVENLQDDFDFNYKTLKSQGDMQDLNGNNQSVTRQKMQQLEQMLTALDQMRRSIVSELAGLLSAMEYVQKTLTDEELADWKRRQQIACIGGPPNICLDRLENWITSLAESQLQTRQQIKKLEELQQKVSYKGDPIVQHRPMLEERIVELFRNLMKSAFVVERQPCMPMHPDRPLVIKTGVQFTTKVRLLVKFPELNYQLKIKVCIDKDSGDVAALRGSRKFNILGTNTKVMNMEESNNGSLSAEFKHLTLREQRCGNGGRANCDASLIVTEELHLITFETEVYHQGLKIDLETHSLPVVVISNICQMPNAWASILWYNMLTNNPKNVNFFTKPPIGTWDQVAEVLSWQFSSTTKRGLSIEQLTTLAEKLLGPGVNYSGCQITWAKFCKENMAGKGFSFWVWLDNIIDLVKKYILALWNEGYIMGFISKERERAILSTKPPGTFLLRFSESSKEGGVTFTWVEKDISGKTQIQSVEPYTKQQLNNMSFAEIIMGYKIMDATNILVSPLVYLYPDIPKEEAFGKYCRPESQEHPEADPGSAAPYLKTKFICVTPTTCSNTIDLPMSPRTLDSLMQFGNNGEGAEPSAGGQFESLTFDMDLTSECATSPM

Binding result, no binding:
B1
B2
B3
B4
